These results are taken from patent US20210145976A1 (ARO BIOTHERAPEUTICS, published 2021).

Experiment [1] deals with T1, recombinant biotinylated CD71 extracellular domain (Sino Biologics) with an N-terminal 6His tag (human, UniProt P02786 89-760, biotinylated (sites not given)).
T1 construct: extracellular domain; also called hCD71; huCD71
Nature of the experiment: screening ELISA. In general terms: In an ELISA, binding on a coated surface is turned into a signal by an enzyme label.

Experiment [2] addresses T1, recombinant biotinylated CD71 …. Nature of the experiment: screening ELISA, ratio.
A further experiment deals with CD71 on SK-BR-3 cells (human, UniProt P02786 1-760). The experiment is described as follows: cell-based or functional assay.

Where a chain is given by its changes, count along the chain named.

T1 sequence (P02786 other isoform, or with tags, fused parts or gaps): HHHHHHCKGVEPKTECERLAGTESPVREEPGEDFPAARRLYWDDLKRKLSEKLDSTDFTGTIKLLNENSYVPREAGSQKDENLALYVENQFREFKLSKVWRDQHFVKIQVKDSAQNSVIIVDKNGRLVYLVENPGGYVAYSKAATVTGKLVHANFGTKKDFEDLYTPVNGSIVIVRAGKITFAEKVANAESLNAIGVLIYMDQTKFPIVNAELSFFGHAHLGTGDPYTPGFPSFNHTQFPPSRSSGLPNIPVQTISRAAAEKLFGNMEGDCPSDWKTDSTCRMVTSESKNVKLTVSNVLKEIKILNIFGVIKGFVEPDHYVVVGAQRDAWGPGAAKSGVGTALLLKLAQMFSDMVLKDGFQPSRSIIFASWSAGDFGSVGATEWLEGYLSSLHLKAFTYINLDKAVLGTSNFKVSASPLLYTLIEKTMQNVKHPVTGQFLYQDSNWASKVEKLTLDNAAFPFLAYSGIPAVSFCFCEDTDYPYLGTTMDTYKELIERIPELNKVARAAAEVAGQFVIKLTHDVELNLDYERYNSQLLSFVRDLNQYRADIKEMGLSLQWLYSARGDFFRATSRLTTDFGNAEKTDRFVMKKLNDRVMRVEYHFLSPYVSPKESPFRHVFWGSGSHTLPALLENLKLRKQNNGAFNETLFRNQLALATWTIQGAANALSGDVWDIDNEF
CD71 on SK-BR-3 cells, sequence (P02786 whole entry): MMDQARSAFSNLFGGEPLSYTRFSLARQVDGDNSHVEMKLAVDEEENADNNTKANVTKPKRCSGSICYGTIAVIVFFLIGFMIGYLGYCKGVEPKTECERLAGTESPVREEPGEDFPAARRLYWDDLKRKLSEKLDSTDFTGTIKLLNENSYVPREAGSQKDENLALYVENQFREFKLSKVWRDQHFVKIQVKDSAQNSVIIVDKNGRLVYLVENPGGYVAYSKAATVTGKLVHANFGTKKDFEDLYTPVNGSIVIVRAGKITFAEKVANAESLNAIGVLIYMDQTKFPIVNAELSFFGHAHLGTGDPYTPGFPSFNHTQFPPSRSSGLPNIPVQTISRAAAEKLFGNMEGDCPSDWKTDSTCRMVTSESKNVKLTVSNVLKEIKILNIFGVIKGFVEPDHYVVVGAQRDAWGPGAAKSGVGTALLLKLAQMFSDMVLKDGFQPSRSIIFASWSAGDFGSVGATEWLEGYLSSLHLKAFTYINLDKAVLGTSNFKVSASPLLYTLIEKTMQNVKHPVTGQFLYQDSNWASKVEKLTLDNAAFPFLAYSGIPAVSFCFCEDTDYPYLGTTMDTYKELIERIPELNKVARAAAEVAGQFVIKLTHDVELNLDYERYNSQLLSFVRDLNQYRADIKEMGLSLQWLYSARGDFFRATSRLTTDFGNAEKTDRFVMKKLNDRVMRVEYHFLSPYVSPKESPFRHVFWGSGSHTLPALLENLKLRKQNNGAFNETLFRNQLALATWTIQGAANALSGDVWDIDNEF

B1: SEQ ID NO 253 (designed binder)
chain: MLPAPKNLVVSRVTEDSARLSWTAPDAAFDSFTIEYWETIGGGEAIVLTVPGSERSYDLTGLKPGTEYYVGIYGVKGGWWSRPLSAIFTT
notes: FN3 domain
Consider B1, for which the hCD71 in experiment [1] was determined as 2.8e+06. For the same molecule, the “hCD71:HSA” value in experiment [2] came to 1140.

B2: SEQ ID NO 269 (designed binder)
chain: MLPAPKNLVVSRVTEDSARLSWTAPDAAFDSFHINYAEVYTKGEAILLTVPGSERSYDLTGLKPGTEYEVYIPGVKGGPFSRPLNAQFTT
notes: FN3 domain
For the molecule B2, the hCD71 in experiment [1] turned out to be 690000. The “hCD71:HSA” value in experiment [2] amounted to 166.

B3: SEQ ID NO 247 (designed binder)
chain: MLPAPKNLVVSRVTEDSARLSWTAPDAAFDSFYIEWTYKGEAIVLTVPGSERSYDLTGLKPGTEYFVGIPGVKGGKSSYPLSAIFTT
notes: FN3 domain
Regarding B3, the hCD71 in experiment [1] was determined as 916000. For the same molecule, the “hCD71:HSA” value in experiment [2] was determined as 17.

B4: SEQ ID NO 260 (designed binder)
chain: MLPAPKNLVVSRVTEDSARLSWTAPDAAFDSFNISYYEYFVHGEAIVLTVPGSERSYDLTGLKPGTEYYVIDGVKGGDPSEPLSAIFTT
notes: FN3 domain
Regarding B4, the hCD71 in experiment [1] was 1.3e+06. In addition, in experiment [2], the “hCD71:HSA” value came to 90.

B5: SEQ ID NO 291 (designed binder)
chain: MLPAPKNLVVSRVTEDSARLSWTAPDAAFDSFHIEYEEPETEGEAIYLHVPGSERSYDLTGLKPGTEYKVLIRGVKGGSYSIPLQAPFTT
notes: FN3 domain
Take B5: the hCD71 in experiment [1] was found to be 3.83e+06. Besides, in experiment [2], the “hCD71:HSA” value was 1780.

B6: SEQ ID NO 294 (designed binder)
chain: MLPAPKNLVVSRVTEDSARLSWTAPDAAFDSFSIIYSEWNVTGEAIVLTVPGSERSYDLTGLKPGTEYDVWIEGVKGGGMSKPLSAISTT
notes: FN3 domain
With B6, the hCD71 in experiment [1] turned out to be 1.44e+06. For the same molecule, the “hCD71:HSA” value in experiment [2] was 174.

B7: SEQ ID NO 241 (designed binder)
chain: MLPAPKNLVVSRVTEDSARLSWTAPDAAFDSFNIYYYEWFVSGEAIVLTVPGSERSYDLTGLKPGTEYFVDIDGVKGGYRSRPLSAIFTT
notes: FN3 domain
Consider B7, for which, in experiment [1], the hCD71 stood at 2.7e+06. Further, the “hCD71:HSA” value in experiment [2] worked out at 1230.

B8: SEQ ID NO 286 (designed binder)
chain: B7 chain with Y37P, W39F, F40P, S42R, F69V, D71S, D73W, Y79T, R80Q, R82W
notes: FN3 domain
Consider B8, for which, in experiment [1], the hCD71 turned out to be 1.27e+06. Further, the “hCD71:HSA” value in experiment [2] is 118.

B9: SEQ ID NO 83 (designed binder)
chain: B7 chain with N33Y, W39S, F40S, V41G, S42T, D73G, Y79S, R80Y, R82L
notes: FN3 domain
As to B9, the hCD71 in experiment [1] came to 1.93e+06. Besides, the “hCD71:HSA” value in experiment [2] is 1480.

B10: SEQ ID NO 309 (designed binder)
chain: MLPAPKNLVVSRVTEDSARLSWTAPDAAFDSFIIDYLELDQEGEAIVLTVPGSERSYDLTGLKPGTEYAVYIFGVKGGYPSTPLSAIFTT
notes: FN3 domain
For B10, the hCD71 in experiment [1] came to 3.14e+06. In addition, the “hCD71:HSA” value in experiment [2] amounted to 1100.

B11: SEQ ID NO 292 (designed binder)
chain: MLPAPKNLVVSRVTEDSARLSWTAPDAAFDSFDIAYWELTPSGEAIELLVPGSERSYDLTGLKPGTEYRVDIIGVKGGFISEPLGATFTT
notes: FN3 domain
With B11, in experiment [1], the hCD71 is 2.62e+06. For the same molecule, in experiment [2], the “hCD71:HSA” value was found to be 296.

B12: SEQ ID NO 249 (designed binder)
chain: MLPAPKNLVVSRVTEDSARLSWTAPDAAFDSFSIDYFESVGFGEAIVLTVPGSERSYDLTGLKPGTEYDVQITGVKGGPHSLPLSAIFTT
notes: FN3 domain
Take B12: the hCD71 in experiment [1] turned out to be 1.05e+06. The “hCD71:HSA” value in experiment [2] was 148.

B13: SEQ ID NO 299 (designed binder)
chain: B1 chain with T33L, T39S, I40V, G42Y, Y69W, W79Y, W80Y
notes: FN3 domain
As for B13, the hCD71 in experiment [1] is 4.27e+06. For the same molecule, the “hCD71:HSA” value in experiment [2] was 1940.

B14: SEQ ID NO 273 (designed binder)
chain: MLPAPKNLVVSRVTEDSARLSWTAPDAAFDSFTIFKDGEAIVLTVPGSERSYDLTGLKPGTEYYVYIYGVKGGYPSKPLSAIFTT
notes: FN3 domain
As to B14, the hCD71 in experiment [1] stood at 4.65e+06. Besides, the “hCD71:HSA” value in experiment [2] stood at 508.

B15: SEQ ID NO 281 (designed binder)
chain: MLPAPKNLVVSRVTEDSARLSWTAPDAAFDSFYIDYDEIHDWGEAIVLTVPGSERSYDLTGLKPGTEYAVQIGGVKGGSFSWTLSAIFTT
notes: FN3 domain
B15: the hCD71 in experiment [1] came to 1.07e+06. The “hCD71:HSA” value in experiment [2] worked out at 48.

B16: SEQ ID NO 85 (designed binder)
chain: MLPAPKNLVVSRVTEDSARLSWTAPDAAFDSFFIWYWEKSVDGEAIVLTVPGSERSYDLTGLKPGTEYNVGIQGVKGGTPSDPLSAIFTT
notes: FN3 domain
B16: the hCD71 in experiment [1] was 2.91e+06. The “hCD71:HSA” value in experiment [2] was 1160. Besides, the “IC50, SKBR-3 viability, MMAF conjugate, second unlabelled column (+/- human transferrin)” value with CD71 on SK-BR-3 cells is 89 nM.

B17: SEQ ID NO 96 (designed binder)
chain: B16 chain with W35G, W37L, K39P, S40Q, V41P, D42P, G71T, T79F, D82M
Turning to B17, in the experiment with CD71 on SK-BR-3 cells, the “IC50, SKBR-3 viability, MMAF conjugate, first unlabelled column (+/- human transferrin)” value was 79.5 nM and the “IC50, SKBR-3 viability, MMAF conjugate, second unlabelled column (+/- human transferrin)” value is 27 nM.

B18: SEQ ID NO 136 (designed binder)
chain: MLPAPKNLVVSRVTEDSARLSWTAPDAAFDSFFIYYIESYPAGEAIVLTVPGSERSYDLTGLKPGTEYWMGIDGVKGGRWSTPLSAIFTT
notes: FN3 domain
As for B18, the hCD71 in experiment [1] came out at 4.03e+06. Moreover, the “hCD71:HSA” value in experiment [2] was 706. In the experiment with CD71 on SK-BR-3 cells, the “IC50, SKBR-3 viability, MMAF conjugate, first unlabelled column (+/- human transferrin)” value was 2.32 nM and the “IC50, SKBR-3 viability, MMAF conjugate, second unlabelled column (+/- human transferrin)” value amounted to 0.503 nM.

B19: SEQ ID NO 284 (designed binder)
chain: B16 chain with W35G, W37L, K39P, S40Q, V41P, D42P, G71T, T79F, D82M
For the molecule B19, in the experiment with CD71 on SK-BR-3 cells, the “IC50, SKBR-3 viability, MMAF conjugate, first unlabelled column (+/- human transferrin)” value was found to be 98 nM and the “IC50, SKBR-3 viability, MMAF conjugate, second unlabelled column (+/- human transferrin)” value worked out at 32 nM.

B20: SEQ ID NO 301 (designed binder)
chain: MLPAPKNLVVSRVTEDSARLSWTAPDAAFDSFEIEYDEPYRGGEAIVLTVPGSERSYDLTSLKPGTEYPVSIGGVKGGITSDPLSAIFTT
notes: FN3 domain
As to B20, in experiment [1], the hCD71 was determined as 660000. Besides, the “hCD71:HSA” value in experiment [2] was 55.

B21: SEQ ID NO 297 (designed binder)
chain: MLPAPKNLVVSRVTEDSARLSWTAPDAAFDSFLIPYAETSPSGEAITLFVPGSERSYDLTGLKPGTEYNVVIQGVKGGRPSNPLVAASTT
notes: FN3 domain
For B21, the hCD71 in experiment [1] was 2.59e+06. In addition, the “hCD71:HSA” value in experiment [2] stood at 49.

B22: SEQ ID NO 290 (designed binder)
chain: MLPAPKNLVVSRVTEDSARLSWTAPDAAFDSFFYLEQAWGGEAIVLTVPGSERSYDLTGLKPGTEYWVEITGVKGGYASSPLSAIFTT
notes: FN3 domain
Turning to B22, the hCD71 in experiment [1] was 2.81e+06. Also, the “hCD71:HSA” value in experiment [2] turned out to be 237.

B23: SEQ ID NO 266 (designed binder)
chain: MLPAPKNLVVSRVTEDSARLSWTAPDAAFDSFMIRYQEGTRWGEAIVLTVPGSERSYDLTGLKPGTEYIVMIAGVKGGQISLPLSAIFTT
notes: FN3 domain
As for B23, the hCD71 in experiment [1] was 894000. Further, the “hCD71:HSA” value in experiment [2] is 337.

B24: SEQ ID NO 270 (designed binder)
chain: B23 chain with M33L, G39W, T40Q, I69T, M71H, Q79M, I80L
notes: FN3 domain
As for B24, in experiment [1], the hCD71 turned out to be 1.81e+06. The “hCD71:HSA” value in experiment [2] stood at 754.

B25: SEQ ID NO 274 (designed binder)
chain: MLPAPKNLVVSRVTEDSVRLSWTAPDAAFDSFAISYEEWWVHGEAIVLTVPGSERSYDLTGLKPGTEYSVVIPGVKGGLYSWTLSAISTT
notes: FN3 domain
With B25, the hCD71 in experiment [1] is 522000. Also, the “hCD71:HSA” value in experiment [2] was 44.

B26: SEQ ID NO 239 (designed binder)
chain: MLPAPKNLVVSRVTEDSARLSWTAPDAAFDSFAITYYEGRWRGEAIVLTVPGSERSYDLTGLKPGTEYGVPIRGVKGGTGSLPLSAIFTT
notes: FN3 domain
With B26, the hCD71 in experiment [1] came out at 419000. In addition, the “hCD71:HSA” value in experiment [2] is 83.

B27: SEQ ID NO 277 (designed binder)
chain: B26 chain with A33W, T35N, R40I, W41G, R42E, G69Y, P71D, R73S, T79S, G80Y
notes: FN3 domain
With B27, in experiment [1], the hCD71 came out at 3.11e+06. Further, the “hCD71:HSA” value in experiment [2] stood at 598.

B28: SEQ ID NO 248 (designed binder)
chain: MGSLPAPKNLVVSRVTEDSARLSWTAPDAAFDSFAIPYAEPSPTGEAIVLTVPGSERSYDLTGLKPGTEYPVWIQGVKGGSPSAPLSAEFTT
notes: FN3 domain
B28: in experiment [1], the hCD71 turned out to be 832000. Besides, the “hCD71:HSA” value in experiment [2] turned out to be 55.

B29: SEQ ID NO 244 (designed binder)
chain: MLPAPKNLVVSRVTEDSARLSWTAPDAAFDSFHIDYSEFHLRGEAIVLTVPGSERSYDLTGLKPGTEYLGIFGVKGGEQSGPLSAIFTT
notes: FN3 domain
Take B29: in experiment [1], the hCD71 was determined as 545000. Moreover, the “hCD71:HSA” value in experiment [2] stood at 330.

B30: SEQ ID NO 308 (designed binder)
chain: MLPAPKNLVVSEVTEDSARLSWQGVARAFDSFLITYREQIFAGEVIVLTVPGSERSYDLTGLKPGTEYPVWIQGVKGGSPSAPLSAISTT
notes: FN3 domain
For B30, the hCD71 in experiment [1] was 609000. In experiment [2], the “hCD71:HSA” value worked out at 50.

B31: SEQ ID NO 234 (designed binder)
chain: MLPAPKNLVVSRVTEDSARLSWTAPDAAFDSFYITYWETWDYGEAIVLTVPGSERSYDLTGLKPGTEYKVPITGVKGGGPSVPLSAIFTT
notes: FN3 domain
Consider B31, for which the hCD71 in experiment [1] came out at 680000. Moreover, the “hCD71:HSA” value in experiment [2] turned out to be 94.

B32: SEQ ID NO 242 (designed binder)
chain: B31 chain with Y33P, T35K, W37L, T39W, D41S, Y42W, K69R, T73S, P80M, V82G
notes: FN3 domain
As for B32, in experiment [1], the hCD71 was 872000. Moreover, the “hCD71:HSA” value in experiment [2] was 178.
